{"source": "the Human Domainome abundance scans (Beltran et al. 2025)", "parents": {"B1": {"name": "Chromodomain-helicase-DNA-binding protein 5, residues 411 to 463; numbered along this chain, Q8TDI0 (parent)", "chain": "EEDDHMEFCRVCKDGGELLCCDACPSSYHLHCLNPPLPEIPNGEWLCPRCTCP"}}, "note": "± gives the uncertainty stated by the source.", "data": [{"variants_of": "B1", "test": "abundance fitness (aPCA) (normalised: wild type 0, dead -1); higher = more abundant; growth selection in yeast, the domain comes from the species named", "settings": "Homo sapiens", "values": [{"variant": "F8R", "abundance fitness": "-0.051 ± 0.045"}, {"variant": "F8V", "abundance fitness": "-0.152 ± 0.076"}, {"variant": "F8K", "abundance fitness": "-0.409 ± 0.12"}, {"variant": "F8N", "abundance fitness": "0.024 ± 0.11"}, {"variant": "F8I", "abundance fitness": "-0.347 ± 0.12"}, {"variant": "F8A", "abundance fitness": "-0.017 ± 0.066"}, {"variant": "F8T", "abundance fitness": "0.023 ± 0.077"}, {"variant": "C50I", "abundance fitness": "-0.751 ± 0.059"}, {"variant": "C50W", "abundance fitness": "-0.477 ± 0.066"}, {"variant": "C50R", "abundance fitness": "-0.686 ± 0.049"}, {"variant": "C50A", "abundance fitness": "-0.628 ± 0.055"}, {"variant": "C50F", "abundance fitness": "-0.756 ± 0.093"}, {"variant": "C50S", "abundance fitness": "-0.702 ± 0.053"}, {"variant": "C21F", "abundance fitness": "-0.844 ± 0.15"}, {"variant": "C21Y", "abundance fitness": "-0.946 ± 0.2"}, {"variant": "C21L", "abundance fitness": "-0.999 ± 0.071"}, {"variant": "C21I", "abundance fitness": "-1.13 ± 0.2"}, {"variant": "C21E", "abundance fitness": "-0.873 ± 0.11"}, {"variant": "C21H", "abundance fitness": "-0.773 ± 0.17"}, {"variant": "C21S", "abundance fitness": "-0.883 ± 0.058"}, {"variant": "C21W", "abundance fitness": "-0.958 ± 0.071"}, {"variant": "H29R", "abundance fitness": "-0.741 ± 0.062"}, {"variant": "H29K", "abundance fitness": "-1.06 ± 0.25"}, {"variant": "H29I", "abundance fitness": "-1.2 ± 0.49"}, {"variant": "H29Y", "abundance fitness": "-0.652 ± 0.26"}, {"variant": "R49Q", "abundance fitness": "0.156 ± 0.069"}, {"variant": "R49Y", "abundance fitness": "-0.088 ± 0.1"}, {"variant": "R49W", "abundance fitness": "-0.073 ± 0.064"}, {"variant": "R49F", "abundance fitness": "0.011 ± 0.1"}, {"variant": "R49D", "abundance fitness": "0.101 ± 0.049"}, {"variant": "R49A", "abundance fitness": "-0.017 ± 0.056"}, {"variant": "R49P", "abundance fitness": "-0.106 ± 0.063"}, {"variant": "R49H", "abundance fitness": "-0.223 ± 0.11"}, {"variant": "T51Q", "abundance fitness": "0.116 ± 0.092"}, {"variant": "T51G", "abundance fitness": "-0.052 ± 0.063"}, {"variant": "T51V", "abundance fitness": "-0.084 ± 0.064"}, {"variant": "T51K", "abundance fitness": "0.049 ± 0.089"}, {"variant": "T51M", "abundance fitness": "-0.296 ± 0.095"}, {"variant": "E2T", "abundance fitness": "0.011 ± 0.12"}, {"variant": "E2H", "abundance fitness": "-0.261 ± 0.13"}, {"variant": "E2D", "abundance fitness": "-0.565 ± 0.19"}, {"variant": "E2I", "abundance fitness": "0.392 ± 0.13"}, {"variant": "E2C", "abundance fitness": "-0.398 ± 0.14"}, {"variant": "E2G", "abundance fitness": "-0.131 ± 0.054"}, {"variant": "E2S", "abundance fitness": "-0.062 ± 0.12"}, {"variant": "I40Y", "abundance fitness": "-0.059 ± 0.33"}, {"variant": "I40L", "abundance fitness": "0.147 ± 0.086"}, {"variant": "I40R", "abundance fitness": "-0.121 ± 0.097"}, {"variant": "I40M", "abundance fitness": "-0.112 ± 0.14"}, {"variant": "I40G", "abundance fitness": "-0.09 ± 0.098"}, {"variant": "I40P", "abundance fitness": "0.052 ± 0.079"}, {"variant": "I40H", "abundance fitness": "-0.151 ± 0.24"}, {"variant": "H31Y", "abundance fitness": "-0.455 ± 0.12"}, {"variant": "H31C", "abundance fitness": "-0.421 ± 0.14"}, {"variant": "H31W", "abundance fitness": "-0.361 ± 0.11"}, {"variant": "H31V", "abundance fitness": "-0.268 ± 0.084"}, {"variant": "H31L", "abundance fitness": "-0.246 ± 0.086"}, {"variant": "S27H", "abundance fitness": "0.026 ± 0.064"}, {"variant": "S27C", "abundance fitness": "-0.035 ± 0.082"}, {"variant": "S27L", "abundance fitness": "-0.039 ± 0.054"}, {"variant": "S27I", "abundance fitness": "-0.345 ± 0.12"}, {"variant": "S27P", "abundance fitness": "-0.47 ± 0.064"}, {"variant": "P53L", "abundance fitness": "0.13 ± 0.15"}, {"variant": "P53T", "abundance fitness": "-0.083 ± 0.16"}, {"variant": "G16K", "abundance fitness": "-0.482 ± 0.16"}, {"variant": "G16C", "abundance fitness": "-0.183 ± 0.21"}, {"variant": "G16R", "abundance fitness": "-0.518 ± 0.14"}, {"variant": "G16D", "abundance fitness": "-0.003 ± 0.14"}, {"variant": "G16E", "abundance fitness": "0.411 ± 0.12"}, {"variant": "C32I", "abundance fitness": "-0.979 ± 0.19"}, {"variant": "C32Q", "abundance fitness": "-0.72 ± 0.047"}, {"variant": "C32N", "abundance fitness": "-0.395 ± 0.13"}, {"variant": "C32L", "abundance fitness": "-0.716 ± 0.097"}, {"variant": "C32P", "abundance fitness": "-0.638 ± 0.14"}, {"variant": "C32S", "abundance fitness": "-1.05 ± 0.14"}, {"variant": "C32G", "abundance fitness": "-0.985 ± 0.084"}, {"variant": "C32R", "abundance fitness": "-1 ± 0.083"}, {"variant": "C32Y", "abundance fitness": "-0.846 ± 0.18"}, {"variant": "P48A", "abundance fitness": "-0.27 ± 0.085"}, {"variant": "P48S", "abundance fitness": "-0.025 ± 0.071"}, {"variant": "P48F", "abundance fitness": "0.31 ± 0.12"}, {"variant": "P48N", "abundance fitness": "-0.106 ± 0.12"}, {"variant": "P48H", "abundance fitness": "0.014 ± 0.13"}, {"variant": "P48L", "abundance fitness": "-0.564 ± 0.1"}, {"variant": "P48K", "abundance fitness": "-0.419 ± 0.14"}, {"variant": "P48W", "abundance fitness": "-0.412 ± 0.12"}, {"variant": "W45R", "abundance fitness": "-0.449 ± 0.043"}, {"variant": "W45M", "abundance fitness": "-0.491 ± 0.088"}, {"variant": "W45H", "abundance fitness": "-0.512 ± 0.2"}, {"variant": "Y28E", "abundance fitness": "-0.853 ± 0.083"}, {"variant": "Y28M", "abundance fitness": "-0.262 ± 0.045"}, {"variant": "Y28K", "abundance fitness": "-0.481 ± 0.05"}, {"variant": "Y28A", "abundance fitness": "-0.466 ± 0.066"}, {"variant": "Y28N", "abundance fitness": "-0.608 ± 0.13"}, {"variant": "Y28V", "abundance fitness": "-0.428 ± 0.064"}, {"variant": "Y28H", "abundance fitness": "-0.376 ± 0.12"}, {"variant": "Y28C", "abundance fitness": "-0.653 ± 0.095"}, {"variant": "P35Y", "abundance fitness": "-0.476 ± 0.099"}, {"variant": "P35W", "abundance fitness": "-0.404 ± 0.052"}, {"variant": "P35N", "abundance fitness": "-0.172 ± 0.096"}, {"variant": "P35I", "abundance fitness": "-0.183 ± 0.068"}, {"variant": "P35C", "abundance fitness": "-0.371 ± 0.078"}, {"variant": "P35Q", "abundance fitness": "-0.12 ± 0.063"}, {"variant": "S26I", "abundance fitness": "-0.08 ± 0.1"}, {"variant": "S26H", "abundance fitness": "-0.008 ± 0.067"}, {"variant": "S26Q", "abundance fitness": "-0.387 ± 0.095"}, {"variant": "S26L", "abundance fitness": "0.001 ± 0.05"}, {"variant": "S26R", "abundance fitness": "-0.106 ± 0.078"}, {"variant": "S26A", "abundance fitness": "0.044 ± 0.054"}, {"variant": "S26W", "abundance fitness": "-0.37 ± 0.083"}, {"variant": "S26T", "abundance fitness": "0.002 ± 0.051"}, {"variant": "S26G", "abundance fitness": "-0.036 ± 0.073"}, {"variant": "E44Q", "abundance fitness": "0.041 ± 0.053"}, {"variant": "E44C", "abundance fitness": "-0.026 ± 0.068"}, {"variant": "E44D", "abundance fitness": "0.051 ± 0.061"}, {"variant": "E44F", "abundance fitness": "-0.361 ± 0.085"}, {"variant": "E44T", "abundance fitness": "0.02 ± 0.056"}, {"variant": "L18R", "abundance fitness": "-0.084 ± 0.062"}, {"variant": "L18P", "abundance fitness": "-0.91 ± 0.29"}, {"variant": "L18D", "abundance fitness": "-0.972 ± 0.32"}, {"variant": "L18A", "abundance fitness": "-0.769 ± 0.15"}, {"variant": "L18V", "abundance fitness": "0.065 ± 0.082"}, {"variant": "L18W", "abundance fitness": "-0.972 ± 0.17"}, {"variant": "L18E", "abundance fitness": "-0.812 ± 0.25"}, {"variant": "N34F", "abundance fitness": "0.066 ± 0.096"}, {"variant": "N34W", "abundance fitness": "-0.204 ± 0.067"}, {"variant": "N34H", "abundance fitness": "-0.303 ± 0.2"}, {"variant": "N34A", "abundance fitness": "-0.018 ± 0.052"}, {"variant": "N34L", "abundance fitness": "-0.015 ± 0.048"}, {"variant": "E7G", "abundance fitness": "-0.079 ± 0.052"}, {"variant": "E7Q", "abundance fitness": "-0.332 ± 0.12"}, {"variant": "E7P", "abundance fitness": "-0.368 ± 0.07"}, {"variant": "E7M", "abundance fitness": "-0.378 ± 0.11"}, {"variant": "E7Y", "abundance fitness": "-0.527 ± 0.17"}, {"variant": "E7D", "abundance fitness": "0.031 ± 0.085"}, {"variant": "E7V", "abundance fitness": "0.063 ± 0.064"}, {"variant": "E7A", "abundance fitness": "-0.031 ± 0.083"}, {"variant": "E7N", "abundance fitness": "-0.07 ± 0.12"}, {"variant": "A23D", "abundance fitness": "-0.082 ± 0.12"}, {"variant": "A23W", "abundance fitness": "-0.043 ± 0.072"}, {"variant": "A23G", "abundance fitness": "-0.014 ± 0.088"}, {"variant": "A23Q", "abundance fitness": "0.305 ± 0.13"}, {"variant": "A23Y", "abundance fitness": "0.193 ± 0.074"}, {"variant": "A23H", "abundance fitness": "0.088 ± 0.17"}, {"variant": "E17K", "abundance fitness": "0.007 ± 0.068"}, {"variant": "E17H", "abundance fitness": "-0.138 ± 0.041"}, {"variant": "E17G", "abundance fitness": "-0.171 ± 0.068"}, {"variant": "E17N", "abundance fitness": "-0.063 ± 0.061"}, {"variant": "E17W", "abundance fitness": "-0.458 ± 0.052"}, {"variant": "E17L", "abundance fitness": "-0.27 ± 0.051"}, {"variant": "E17V", "abundance fitness": "-0.228 ± 0.05"}, {"variant": "E17S", "abundance fitness": "-0.21 ± 0.045"}, {"variant": "E17D", "abundance fitness": "-0.276 ± 0.074"}, {"variant": "E17M", "abundance fitness": "-0.13 ± 0.059"}, {"variant": "E17R", "abundance fitness": "-0.187 ± 0.053"}, {"variant": "C12E", "abundance fitness": "-0.504 ± 0.049"}, {"variant": "C12F", "abundance fitness": "-0.756 ± 0.21"}, {"variant": "C12V", "abundance fitness": "-0.828 ± 0.088"}, {"variant": "C12G", "abundance fitness": "-0.66 ± 0.066"}, {"variant": "C47T", "abundance fitness": "-0.551 ± 0.12"}, {"variant": "C47Q", "abundance fitness": "-0.192 ± 0.11"}, {"variant": "C47I", "abundance fitness": "-0.009 ± 0.15"}, {"variant": "C47S", "abundance fitness": "-0.653 ± 0.048"}, {"variant": "C47G", "abundance fitness": "-0.533 ± 0.074"}, {"variant": "C47V", "abundance fitness": "-0.808 ± 0.084"}, {"variant": "C47F", "abundance fitness": "-0.318 ± 0.12"}, {"variant": "C47E", "abundance fitness": "-0.853 ± 0.14"}]}]}
